Laboratory results as given in patent publication US11020478B2, “Methods for modulating angiogenesis of cancers refractory to anti-VEGF treatment” (INIS BIOTECH LLC, priority 2013, dated 2021).
Substitutions are numbered along the chain they refer to.

How the values were obtained:
rhVEGFR2 = target: T1, rhVEGFR2 (Homo sapiens, UniProt P35968); test: FRET-based fluorescence spectroscopy, Gal1 binding to rhVEGFR2; conditions: 594-Gal1 added to 0.5 μM 488-VEGFR2, 25° C.
T1 construct: the recombinant extracellular domain of VEGFR2 expressed in human cells (Sino Biological Inc.); purchased Sino Biological Inc; host or cells: human cells
T1 sequence (P35968 20-764 limits assumed): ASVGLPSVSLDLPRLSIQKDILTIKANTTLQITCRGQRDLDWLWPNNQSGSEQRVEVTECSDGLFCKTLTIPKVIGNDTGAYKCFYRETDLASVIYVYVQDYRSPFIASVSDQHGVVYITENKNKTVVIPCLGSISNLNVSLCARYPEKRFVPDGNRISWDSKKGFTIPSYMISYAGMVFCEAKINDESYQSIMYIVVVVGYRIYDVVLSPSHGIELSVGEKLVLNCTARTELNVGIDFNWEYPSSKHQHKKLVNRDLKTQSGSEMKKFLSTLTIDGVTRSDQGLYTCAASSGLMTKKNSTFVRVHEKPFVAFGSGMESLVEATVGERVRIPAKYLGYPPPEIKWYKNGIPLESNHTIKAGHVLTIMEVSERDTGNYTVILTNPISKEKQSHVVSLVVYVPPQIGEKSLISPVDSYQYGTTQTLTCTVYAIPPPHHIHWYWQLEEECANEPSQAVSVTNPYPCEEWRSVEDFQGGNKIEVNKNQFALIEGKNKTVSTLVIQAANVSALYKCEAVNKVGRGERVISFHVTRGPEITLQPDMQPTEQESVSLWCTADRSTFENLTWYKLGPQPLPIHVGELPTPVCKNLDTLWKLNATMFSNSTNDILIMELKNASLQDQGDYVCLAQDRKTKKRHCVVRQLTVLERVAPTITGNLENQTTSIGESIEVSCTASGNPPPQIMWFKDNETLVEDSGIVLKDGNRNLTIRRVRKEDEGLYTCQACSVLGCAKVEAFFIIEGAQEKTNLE
Protocol: Association between rhVEGFR2 and Gal1 was studied by a FRET-based fluorescence spectroscopy approach. NHS-activated fluorophores DyLight 488 (DL488, FRET donor) and DyLight 594 (DL594, FRET acceptor) were purchased from Thermo Scientific. For labeling, 4 mg rhGal1 and 100 μg of the recombinant extracellular domain of VEGFR2 expressed in human cells (Sino Biological Inc.) were modified with 200 μg of DL594 and 50 μg of DL488, respectively. Labeling was carried out in PBS buffer in the presence of 5 mM dithiothreitol (DTT) for 1 hour at room temperature following manufacturer's recommended protocol (Thermo Scientific). Labeled rhGal1 was purified by size exclusion chromatography using a Superdex-75 column (GE Life Sciences) generated in PBS containing 5 mM DTT and concentrated up to 200 μM using Centricon tubes (Millipore). Labeled VEGFR2 was dialyzed for 48 hours against PBS using a homemade microdialyzer. Fluorescence spectra were measured in a JASCO FP-6500 spectrofluorometer endowed with a Peltier effect thermostatized cell holder. A 4×4 mm fluorescence cell was employed. All binding assays were carried out at 25° C. in PBS buffer with the addition of 5 mM DTT. Excitation wavelength was set to 493 nm, with a bandpass of 1 nm. Emission spectra were recorded from 500 to 680 nm, using a bandpass of 3 nm. […] Fluorescence intensity at 518 nm was corrected for dilution and inner filter effects.

HUVEC = test: Binding of 488-Gal1 to ECs (flow cytometry); assay type: cell-based, human
HUVEC tube formation = test: Capillary-like tube formation on Matrigel (HUVEC); assay type: cell-based, human; conditions: for tube formation induced by Gal1 / inhibitory activity in Gal1-induced formation of tubular structures (tubulogenesis): HUVEC
Protocol: (§1) Cells were incubated at 37° C. for periods ranging from 0 to 24 h and were visualized by phase-contrast microscopy. Capillary-like tubular structures were scored by counting the number of tubules (closed areas) per well in a phase-contrast microscope (Nikon E-100). For migration assays, ECs (4×10^4/well) transfected or not with specific siRNA were resuspended in M199 medium supplemented with 1% FCS. Cells were placed into the top chamber of the insert while the bottom well was filled with Gal1 or VEGF-A in the absence or presence of the above mentioned stimuli. After 24 hours, inserts were stained with crystal violet (Sigma) and analyzed in an inverted microscope. For each filter, 4 images were obtained and cells were counted with ImageJ software v1.46r (NIH). […] After 24 hours, cells were incubated in the presence of 0.8 μCi [^3H]-thymidine (NEN Dupont). Cells were then harvested and radioactivity was measured in a 1414 Liquid Scintillation Counter (Perkin Elmer). Tumor-associated ECs were identified by flow cytometry using Alexa Fluor 647-conjugated anti-CD34 (RAM34; eBioscience) and FITC-conjugated anti-CD45 (J33; Immunotech). Microvessel density (MVD) was determined by counting the number of CD31^+ microvessels present in 10 mm^2. Ten random 400× fields were counted.

HUVEC migration = test: EC migration assay (HUVEC); assay type: cell-based, human; set-up: inhibitory activity in Gal1-induced cell migration: dose or concentration left out as unconfirmed
Protocol: as §1

ECs = test: EC proliferation assay ([3H]-thymidine); assay type: cell-based, human
Protocol: as §1

[1] = tested on: Gal1 peptides with the consensus motif MAADGDF; test: PEPperMAP Conformational Epitope Mapping Analysis; assay type: binding; conditions: antibody 10 μg/mL; all three peptide lengths
Protocol: Epitope mapping: In order to determine the specific conformational epitopes recognized by the new anti-Gal1 antibodies, a PEPperMAP® Conformational Epitope Mapping Analysis was performed.

human recombinant Gal-1 = target: T2, human recombinant Gal-1 (Homo sapiens, UniProt P09382); test: Affinity assay (SPR) of fully human anti-Gal1 monoclonal antibodies; assay type: binding; conditions: for Ka: kinetics model of interaction adjustment 1:1, BIAEvaluation 3.0
T2 construct: made in house
T2 sequence (P09382 whole entry): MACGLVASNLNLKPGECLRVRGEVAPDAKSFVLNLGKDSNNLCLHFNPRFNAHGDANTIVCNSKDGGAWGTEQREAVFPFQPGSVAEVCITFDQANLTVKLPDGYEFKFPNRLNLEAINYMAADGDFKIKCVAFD
Text: Also conducted was an affinity assay (SPR) for the newly developed fully human anti-Gal1 monoclonal antibodies. In order to characterize affinities of the new anti-Gal-1 monoclonal antibodies, dose-response (RU) curves were collected of the interactions between the monoclonal antibodies and human recombinant Gal-1 (FIG. 14A and FIG. 14B).
By using the BIAEvaluation 3.0 software in a kinetics model of interaction adjustment 1:1, kinetic parameters, constants of dissociation (Kd) and affinity (Ka) were calculated.

Gal1: recombinant Galectin-1, glycan-binding protein (SEQ ID NO: 2)
dissociation constant (Kd) (rhVEGFR2): low micromolar range

CC(=O)N[C@H]1[C@@H](OCc2ccccc2)O[C@H](CO)[C@H](O)[C@@H]1O [benzyl-α-GalNAc]
Gal1 binding to ECs in presence of inhibitor (HUVEC): only partially inhibitory

OC[C@H]1O[C@@H](O[C@H]2[C@H](O)[C@@H](O)C(O)O[C@@H]2CO)[C@H](O)[C@@H](O)[C@H]1O (stereo partly drawn) [lactose, reference compound]
tube formation induced by Gal1 (HUVEC tube formation): almost completely prevented | EC migration induced by Gal1 (HUVEC migration): almost completely prevented | EC proliferation induced by Gal1 (ECs): almost completely prevented

Gal1^N46D: Gal1 mutant lacking carbohydrate-binding activity [reference compound]
impact on EC response (HUVEC tube formation): no impact | binding to ECs (HUVEC; any of the concentrations tested): no binding

O[C@H]1[C@H]2[C@H](O)CCCN2C[C@H]1O [swainsonine, reference compound]
tube formation induced by Gal1 (HUVEC tube formation): almost completely prevented | Gal1 binding to ECs in presence of inhibitor (HUVEC): almost completely abrogated | EC migration induced by Gal1 (HUVEC migration): almost completely prevented | EC proliferation induced by Gal1 (ECs): almost completely prevented

B1: Clone 21: fully human anti-Gal1 monoclonal antibody (IgG1) from scFv library; VH SEQ ID NO: 15, VK SEQ ID NO: 19 (antibody, V domains shown)
VH: EVQLLESGGGLVQPGGSLRLSCAASGFTFSSYAMSWVRQAPGKGLEWVSEIGRVGVNTLYADSVKGRFTISRDNSKNTLYLQMNSLRAEDTAVYYCAKKATQFDYWGQGTLVTVSS
VL: DIQMTQSPSSLSASVGDRVTITCRASQSISSYLNWYQQKPGKAPKLLIYRASRLQSGVPSRFSGSGSGTDFTLTISSLQPEDFATYYCQQTIGPPDTFGQGTKVEIKR
modifications: IgG1 format
inhibitory activity in Gal1-induced formation of tubular structures (tubulogenesis) (HUVEC tube formation): significantly blocked | binding activity against epitope-like spots formed by adjacent peptides with consensus motif MAADGDF [1]: moderate to high binding activity | interaction with human recombinant Gal1 (human recombinant Gal-1): high specific interactions | Ka (human recombinant Gal-1): 649000 M⁻¹ | inhibitory activity in Gal1-induced cell migration (HUVEC migration): significantly blocked

B2: Clone 42: fully human anti-Gal1 monoclonal antibody (IgG1) from scFv library; VH SEQ ID NO: 23, VK SEQ ID NO: 27 (antibody, V domains shown)
VH: EVQLLESGGGLVQPGGSLRLSCAASGFTFSSYAMSWVRQAPGKGLEWVSGISGSGDYTSYADSVKGRFTISRDNSKNTLYLQMNSLRAEDTAVYYCAKGYGAFDYWGQGTLVTVSS
VL: B1 VL with R50G, R53W, T91S, I92A, G93N, P94Y, D96S
modifications: IgG1 format
inhibitory activity in Gal1-induced formation of tubular structures (tubulogenesis) (HUVEC tube formation): significantly blocked | binding activity against epitope-like spots formed by adjacent peptides with consensus motif MAADGDF [1]: higher binding activity | interaction with human recombinant Gal1 (human recombinant Gal-1): high specific interactions | Ka (human recombinant Gal-1): 7.63e+06 M⁻¹ | inhibitory activity in Gal1-induced cell migration (HUVEC migration): significantly blocked
